Source: patent publication US20210030885A1, “HUMANIZED ANTI-LIV1 ANTIBODIES FOR THE TREATMENT OF CANCER” (priority 2019, published 2021)
Marks after values point to notes of the source that are not given here.

How the values were obtained:
[1] = system: patients; experiment: Adverse event incidence with previous LV dosing regimen 2.5 mg/kg Q3W; assay type: in vivo, human; settings: n = 65
[2] = Observed pharmacokinetics of ADC and MMAE after LV Q1W or Q3W dosing; assay type: in vivo, human
Method: To investigate if fractionated dosing could increase treatment efficacy or reduce the number and severity of adverse events, various fractionated dosing schemes of ladiratuzumab vedotin (LV) were tested to measure for changes in Cmax, Ctrough, and AUC at similar total dose intensities and exposure.
Breast cancer patients were treated with (LV).
LV was administered as 30-minute IV infusion at the indicated interval. […]

[3] = Chemical and physical stability of the reconstituted drug product; assay type: physicochemical; settings: at 2-8° C. and at room temperature
Method: When reconstituted with 8.8 mL Water for Injection (WFI), US Pharmacopeia (USP), the concentration of reconstituted LV product is 5 mg/mL. The reconstituted drug product is a clear to slightly opalescent, colorless to light yellow solution with no visible particulate matter. The pH is approximately 6.0. The reconstituted solution is subsequently diluted in sterile 0.9% Sodium Chloride for Injection, USP, for IV administration.
If not used immediately, the in-use storage should not be longer than 24 hours under refrigeration at 2-8° C. The prepared dosing solution (reconstituted drug product solution and saline dilution in an IV bag or polypropylene syringe) should be administered within 8 hours after exposing to ambient temperature and light condition.

[4] = Drug to antibody ratio (DAR) of ADC in blood samples after LV administration, Q3W; assay type: in vivo, human; settings: Q3W dosing
Method: In order to investigate pharmacokinetics of ADC species with different DARs under the previous tri-weekly dosing scheme (Q3W) versus a weekly dosing scheme (Q1W), LV was administered to subjects accordingly, and the pharmacokinetics of ADC species with different DARs were simulated.
Breast cancer patients were treated with ladiratuzumab vedotin (LV).
LV was administered by 30 minute intravenous (IV) infusion under a Q3W interval.
Following administration of LV, subject blood samples were collected at pre-dose, end of infusion, 2 hrs, 4 hrs, 8 hrs, 1 day, 3 days, 7 days, and 14 days after administration. The concentrations of the antibody-drug conjugate (ADC) was measured, and the drug to antibody ratio (DAR) of each species (DAR8, DAR7, DAR6, DARS, DAR4, DAR3, DAR2, DAR1 and DAR0) of the ADCs collected in blood samples was also analyzed. […] Using computer-assisted modeling, where decrease in average DAR was established previously, i.e. from 4 (on Day 0) to 1 (on Day 7) under Q3W, the pharmacokinetics were simulated for (i) ADCs with DARs≥4, or (ii) ADCs with DAR of between 2 and 3 (FIGS. 3B, C respectively) when LV was administered at a dose of 1 mg/kg on Day 1 of each 7-day cycle (Q1W) or at a dose of 3 mg/kg on Day 1 of each 21-day cycle (Q3W). […]

[5] = MMAE, LV 1.0 mg/kg weekly (obs.), n = 4, geometric mean (CV %)
[6] = MMAE, LV 2.5 mg/kg q3wk (obs.), geometric mean (CV %)

Substance: ladiratuzumab vedotin [LV]
- Adverse event incidence: Abdominal Pain [1]: 18 (28%)
- Adverse event incidence: Alopecia [1]: 22 (34%)
- Adverse event incidence: Constipation [1]: 32 (49%)
- Adverse event incidence: Decreased Appetite [1]: 29 (45%)
- Adverse event incidence: Diarrhea [1]: 23 (35%)
- Adverse event incidence: Fatigue [1]: 38 (59%)
- Adverse event incidence: Hypokalemia [1]: 17 (26%)
- Adverse event incidence: Nausea [1]: 32 (49%)
- Adverse event incidence: Neutropenia [1]: 19 (29%)
- Adverse event incidence: Peripheral Sensory Neuropathy [1]: 21 (32%)
- Adverse event incidence: Vomiting [1]: 14 (22%)
- AUC0-21 ([2]; ADC, 1.0 mg/kg weekly (obs.), n = 4, estimated from observed AUC0-7 d of Cycle 1 Dose #1 and Dose #3): 215.4* μg*day/mL
- Cmax ([2]; ADC, 1.0 mg/kg weekly (obs.), n = 4, geo. mean (CV %)): 31.4 (25) μg/mL
- Ctrough ([2]; ADC, 1.25 mg/kg weekly (obs.), n = 1): 7.64 µg/mL
- AUC0-21 ([2]; ADC, 1.25 mg/kg weekly (obs.), n = 5, estimated from observed AUC0-7 d of Cycle 1 Dose #1 and Dose #3): 266.9* μg*day/mL
- Cmax ([2]; ADC, 1.25 mg/kg weekly (obs.), n = 5, geo. mean (CV %)): 43.3 (31) μg/mL
- AUC0-21 ([2]; ADC, 2.5 mg/kg q3wk (obs.), n = 97, geo. mean (CV %)): 210 (27) μg*day/mL
- Cmax ([2]; ADC, 2.5 mg/kg q3wk (obs.), n = 131, geo. mean (CV %)): 85 (27) μg/mL
- AUC0-21 ([2]; MMAE, LV 1.0 mg/kg weekly (obs.), n = 4, estimated from observed AUC0-7 d of Cycle 1 Dose #1 and Dose #3): 29.7* μg*day/mL
- Cmax [2, 5]: 2.1 (61) μg/mL
- Ctrough [2, 5]: 1.26(75) μg/mL
- Ctrough ([2]; MMAE, LV 1.25 mg/kg weekly (obs.), n = 2, geometric mean (CV %)): 2.95(160) μg/mL
- AUC0-21 ([2]; MMAE, LV 1.25 mg/kg weekly (obs.), n = 5, estimated from observed AUC0-7 d of Cycle 1 Dose #1 and Dose #3): 53.6* μg*day/mL
- Cmax ([2]; MMAE, LV 1.25 mg/kg weekly (obs.), n = 5, geometric mean (CV %)): 3.74 (68) μg/mL
- AUC0-21 [2, 6]: 50.3 (61) μg*day/mL
- Cmax [2, 6]: 5.55 (56) μg/mL
- Ctrough [2, 6]: 0.34 (80) μg/mL
- Chemical and physical stability of the reconstituted drug product demonstrated for [3]: 24 h
- DAR of ADCs in blood ([4]; Day 0): about 4
- DAR of ADCs in blood ([4]; Day 7): about 1
